In PMC4027168:

How the values were obtained:
Assay in all cases: EMSA
Settings in all cases: 50 mM Tris-HCl pH 8.0, 5 mM EDTA, 1 mM DTT, 100 mg/ml BSA (so in the source), 6% glycerol, on ice 20 min, 4% native PAGE in 6.7 mM Tris-HCl pH 8.0, 3.3 mM Na …, scale: fold of wild-type affinity
[1] = tested on: RecG[A693Q] (Escherichia coli K-12 MG1655?)
[2] = tested on: RecG[Y690A] (Escherichia coli K-12 MG1655?)
[3] = tested on: RecG[ΔC1] (Escherichia coli K-12 MG1655?)
[4] = no Mg2+, 5 mM EDTA, RecG 0-100 nM, DNA 0.2 nM

Measured: binding signal

J12 Holliday junction
1: [1]; [4] | [2]; [4] | [3]; [4]

replication fork lacking a lagging strand
1: [1] | [2] | [3]
